The results in this text go back to patent US20040156861A1 (US Dept. of Health and Human Services, published 2004).

Read-outs that look alike come from different tables or passages of the source.

Assay [1] addresses gp100 154-162 epitope …. As to the kind of experiment: cell-based or functional assay.
Assay [2] concerns the target gp100 154-162 epitope-analogue …. In words: cell-based or functional assay.
The target of assay [3] is gp100 280-288 …. As to the kind of experiment: cell-based or functional assay.
Assay [4] deals with Melan-A/MART-1 27-35 epitope …. In words: cell-based or functional assay.
Assay [5] deals with Melan-A/MART-1 27-35 epitope-analogue AIGIGLTV (SEQ ID NO: 30). As to the kind of experiment: cell-based or functional assay.
For assay [6], the target named is gp100 280-288 …. In words: cell-based or functional assay. This is another data set of the same source.
Assay [7] concerns the target T1, HLA-A*0201 (human).
T1 construct: also called HLA-A2.1; HLA-A2
As to the kind of experiment: T2 cell HLA-A*0201 stabilization, flow cytometry with mAb BB7.2.

Assay [8] addresses T1, HLA-A*0201. Described as above. This is another data set of the same source.
Method: (§1) Briefly, peptides were diluted from DMSO stocks to various concentrations (final DMSO concentration 0.5%) and were incubated together with 10⁵ T2 cells for 14 hours at 37° C., 5% CO₂ in serum-free Iscoves medium in a volume of 100 ml in the presence of 3 mg/ml human β2-microglobulin (Sigma, St Louis, Mo.). […] The Fluorescence Index is expressed as: (experimental mean fluorescence÷background mean fluorescence)−1.
(§2) ^aBinding of peptides to HLA-A2.1 was analyzed using the processing-defective T2 cell line at the indicated peptide concentrations.
Assay [9] deals with T1, HLA-A*0201. Described as above. The source holds these as a separate data set.
Method: as §1, §2
Assay [10] concerns the target T1, HLA-A*0201. In words: decay of cell-surface HLA-A*0201-peptide complexes at 37 C on emetine-pretreated B-LCL, flow cytometry.
Method: Measurement of MHC-peptide complex stability was performed. […] The cells were then mild-acid treated and subsequently loaded with 200 mM of peptide for 1 hour at room temperature. Thereafter, the cells were washed twice to remove free peptide and were incubated at 37° C. for 0, 2, 4 and 6 hours.
Assay [11] deals with T1, HLA-A*0201. As to the kind of experiment: competition with 150 nM FL-labeled reference peptide on mild-acid treated HLA-A*0201+ JY B-LCL at 4 C, flow cytometry.
From the text: Subsequently, the cells were washed, fixed with paraformaldehyde and analyzed by flow cytometry. […] The binding capacity of competitor peptides is expressed as the concentration needed to inhibit 50% of binding of the FL-labeled reference peptide (IC₅₀).

Consider “T-cell receptor of gp100-reactive TIL 1200 lymphocytes (TCR)”, for which, in [1], the % specific lysis by TIL 1200 of T2 target cells preincubated with 1 µM peptide, E:T 20:1 (% specific lysis) worked out at 67. Moreover, in assay [2], the peptide titration, sensitization of T2 target cells for lysis by TIL 1200 (FIG. 1) (fold lower concentration than wild type) amounted to 10 and the peptide titration, sensitization of T2 target cells for lysis by TIL 1200 (FIG. 2) (fold lower concentration than wild type) was 10. For the same molecule, the % specific lysis by TIL 1200 of T2 target cells preincubated with 1 µM peptide, E:T 20:1 (% specific lysis) in assay [3] was found to be 3.

In the case of “T-cell receptor of Melan-A/MART-1 27-35-reactive TIL 1235 lymphocytes (TCR)”, the % specific lysis by TIL 1235 of T2 target cells preincubated with 1 µM peptide, E:T 20:1 (% specific lysis) is 40 in [4], -3 in [3], 27 in assay [5] and -1 in [6].

Take “Melan-A/MART-1 27-35 epitope-analogue AIGIGLTV (SEQ ID NO: 30) (peptide)”: in the assay with HLA-A*0201 [7], the Fluorescence Index (HLA-A*0201 stabilization), 25 µM peptide is 1.29 and the Fluorescence Index (HLA-A*0201 stabilization), 50 µM peptide was found to be 1.58.

Take ATWGQYWQV (synthetic; alanine at position 1) [gp100 154-162 epitope-analogue ATWGQYWQV]: in the assay with HLA-A*0201 [8], the “Fluorescence Index (HLA-A*0201 stabilization), 25 µM peptide” value (“Fluorescence Index … 25 µM peptide” for short) came to 1.42 and the “Fluorescence Index (HLA-A*0201 stabilization), 50 µM peptide” value (“Fluorescence Index … 50 µM peptide” below) was 1.94.

On to KTWGQAWQV (synthetic; alanine at position 6) [gp100 154-162 epitope-analogue KTWGQAWQV], for which, in the assay with HLA-A*0201 [8], the “Fluorescence Index … 25 µM peptide” value came to 1.15 and the “Fluorescence Index … 50 µM peptide” value is 1.42.

For the molecule KTWGQYWQA (synthetic; alanine at position 9) [gp100 154-162 epitope-analogue KTWGQYWQA], in the assay with HLA-A*0201 [8], the “Fluorescence Index … 25 µM peptide” value was found to be 1.02 and the “Fluorescence Index … 50 µM peptide” value was determined as 1.08.

B1: gp100 154-162 epitope-analogue KVWGQYWQV (peptide)
peptide: KVWGQYWQV
notes: synthetic; N-terminal anchor (position 2) replaced by V
As for B1, in the assay with HLA-A*0201 [9], the “Fluorescence Index … 25 µM peptide” value amounted to 1.57 and the “Fluorescence Index … 50 µM peptide” value turned out to be 2.13. Moreover, in the assay with HLA-A*0201 [10], the “Stability (DT 50%)” value was > 4 h. Also, the IC50 in the assay with HLA-A*0201 [11] came to 800 nM.

In the case of KAWGQYWQV (synthetic; alanine at position 2) [gp100 154-162 epitope-analogue KAWGQYWQV], in the assay with HLA-A*0201 [8], the “Fluorescence Index … 25 µM peptide” value amounted to 1.2 and the “Fluorescence Index … 50 µM peptide” value was found to be 1.57.

B2: gp100 154-162 epitope-analogue KIWGQYWQV (peptide)
peptide: KIWGQYWQV
notes: synthetic; N-terminal anchor (position 2) replaced by I
In the case of B2, in the assay with HLA-A*0201 [9], the “Fluorescence Index … 25 µM peptide” value was 1.43 and the “Fluorescence Index … 50 µM peptide” value is 2. For the same molecule, the “Stability (DT 50%)” value in the assay with HLA-A*0201 [10] is > 4 h. In addition, the IC50 in the assay with HLA-A*0201 [11] worked out at 600 nM.

B3: gp100 154-162 epitope-analogue KMWGQYWQV (peptide)
peptide: KMWGQYWQV
notes: synthetic; N-terminal anchor (position 2) replaced by M
Consider B3, for which, in the assay with HLA-A*0201 [9], the “Fluorescence Index … 25 µM peptide” value came to 1.28 and the “Fluorescence Index … 50 µM peptide” value was determined as 1.73.

B4: gp100 154-162 epitope-analogue KLWGQYWQV (peptide)
peptide: KLWGQYWQV
notes: synthetic; N-terminal anchor (position 2) replaced by L
In the case of B4, in the assay with HLA-A*0201 [9], the “Fluorescence Index … 25 µM peptide” value was 1.55 and the “Fluorescence Index … 50 µM peptide” value came to 2.19. For the same molecule, the “Stability (DT 50%)” value with HLA-A*0201 [10] is > 4 h. In the assay with HLA-A*0201 [11], this molecule came in with an IC50 of 400 nM.

KTWGAYWQV (synthetic; alanine at position 5) [gp100 154-162 epitope-analogue KTWGAYWQV]: in the assay with HLA-A*0201 [8], the “Fluorescence Index … 25 µM peptide” value was determined as 1.25 and the “Fluorescence Index … 50 µM peptide” value turned out to be 1.59.

In the case of KTWGQYWAV (synthetic; alanine at position 8) [gp100 154-162 epitope-analogue KTWGQYWAV], in the assay with HLA-A*0201 [8], the “Fluorescence Index … 25 µM peptide” value stood at 1.35 and the “Fluorescence Index … 50 µM peptide” value was 1.72. Moreover, the “Stability (DT 50%)” value with HLA-A*0201 [10] was > 4 h. Further, the IC50 in the assay with HLA-A*0201 [11] was 500 nM.

Regarding KTWGQYAQV (synthetic; alanine at position 7) [gp100 154-162 epitope-analogue KTWGQYAQV], in the assay with HLA-A*0201 [8], the “Fluorescence Index … 25 µM peptide” value turned out to be 1.14 and the “Fluorescence Index … 50 µM peptide” value was 1.31.

As for KTAGQYWQV (synthetic; alanine at position 3) [gp100 154-162 epitope-analogue KTAGQYWQV], in the assay with HLA-A*0201 [8], the “Fluorescence Index … 25 µM peptide” value is 1.02 and the “Fluorescence Index … 50 µM peptide” value worked out at 1.17.
